We go through 67 sequences from the supplement of paper PMC10724198.

± gives the standard deviation of the averaged measurements.

This data set concerns Saccharomyces cerevisiae. Put plainly: protein stability index of tFT-peptide fusion (C-terminal peptide) (PSI (0-1 scale)); higher = more stable (slower turnover). The settings on record: temperature: 30 C. The procedure:
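MPS profiling in S. cerevisiae of the yeast C-terminome library: the last 12 aa of each annotated ORF are fused to the C-terminus of a sfGFP-mCherry timer, after a GGGS linker. Cells are FACS-sorted into 8 mCherry/sfGFP bins and deep-sequenced. PSI runs from 0 (unstable) to 1 (stable); wild type and das1Δ backgrounds, two technical replicates each.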

Where [1] appears, read: genetic background: das1 deletion.

FGTWEIVIRLLS [RIM2 C-terminal 12 aa]: the protein stability index runs as follows: under setting [1], 0.382 ± 0.0062; (genetic background: wild type) 0.123 ± 0.018.

Regarding FILKAKLEWIKW [YOL075C C-terminal 12 aa], the protein stability index worked out at 0.515 ± 0.018 under setting [1] and 0.578 ± 0.11 (genetic background: wild type).

FKQSEITLYRTR [PEP8 C-terminal 12 aa] displayed a protein stability index under setting [1] of 0.693 ± 0.032 and a protein stability index (genetic background: wild type) of 0.722 ± 0.11.

Consider FKSGQNMLKDEL [SCJ1 C-terminal 12 aa], for which the protein stability index reads like this: under setting [1], 0.681 ± 0.022; (genetic background: wild type) 0.648 ± 0.0073.

In turn, FLFHCVHLLLSG [YDR535C C-terminal 12 aa] showed a protein stability index under setting [1] of 0.511 ± 0.011 and a protein stability index (genetic background: wild type) of 0.4909 ± 0.003.

For the sequence FLRNFKDNRFLQ [YOR121C C-terminal 12 aa], the protein stability index reads like this: under setting [1], 0.726 ± 0.025; (genetic background: wild type) 0.6968 ± 0.004.

In the case of “FPLLMSEIEDFR [YNL067W-A C-terminal 12 aa]”, the protein stability index is, setting by setting: under setting [1], 0.718 ± 0.019; (genetic background: wild type) 0.695 ± 0.033.

As to FPRNLAKSVTVE [GFA1 C-terminal 12 aa], the protein stability index is, setting by setting: under setting [1], 0.599 ± 0.0094; (genetic background: wild type) 0.593 ± 0.011.

As for FQVVSKKKGRKH [SMY2 C-terminal 12 aa], the protein stability index worked out at 0.691 ± 0.017 under setting [1] and 0.72 ± 0.033 (genetic background: wild type).

Turning to “FSRASCITVWLV [YPR160C-A C-terminal 12 aa]”, the protein stability index by setting is: under setting [1], 0.6275 ± 0.0035; (genetic background: wild type) 0.228 ± 0.027.

Consider FSSEFSSDPTVN [YJL206C C-terminal 12 aa], for which the protein stability index is, setting by setting: under setting [1], 0.69642 ± 0.00024; (genetic background: wild type) 0.724 ± 0.034.

For “FSVCCKDATEVS [YHR070C-A C-terminal 12 aa]”, the protein stability index worked out at 0.6764 ± 0.0025 under setting [1] and 0.682 ± 0.031 (genetic background: wild type).

Take FTLVDYDKKFHK [ADH7 C-terminal 12 aa]: the protein stability index is, setting by setting: under setting [1], 0.702 ± 0.043; (genetic background: wild type) 0.78 ± 0.087.

For FTNQKLAKLEVR [YMR141C C-terminal 12 aa], the protein stability index runs as follows: under setting [1], 0.57877 ± 0.00025; (genetic background: wild type) 0.591 ± 0.0041.

For FVLIVLGLLTYL [GET2 C-terminal 12 aa], the protein stability index worked out at 0.364 ± 0.0094 under setting [1] and 0.38 ± 0.019 (genetic background: wild type).

As to FVSHSRFFNRGT [VPS53 C-terminal 12 aa], the protein stability index runs as follows: under setting [1], 0.684 ± 0.03; (genetic background: wild type) 0.6958 ± 0.0033.

In the case of FYIDKFQVREVK [SUC2 C-terminal 12 aa], the protein stability index is, setting by setting: under setting [1], 0.7059 ± 0.0061; (genetic background: wild type) 0.683 ± 0.038.

As for “GAAIAAGVAFLF [YCL048W-A C-terminal 12 aa]”, the protein stability index reads like this: under setting [1], 0.716 ± 0.011; (genetic background: wild type) 0.538 ± 0.021.

The sequence GAGIMALIGKWA [ZRT1 C-terminal 12 aa] displayed a protein stability index under setting [1] of 0.687 ± 0.017 and a protein stability index (genetic background: wild type) of 0.661 ± 0.022.

Turning to GALLAGAAALLL [CCW12 C-terminal 12 aa], the protein stability index came to 0.7007 ± 0.0036 under setting [1] and 0.698 ± 0.019 (genetic background: wild type).

In the case of GAQIISLDEDVF [GIP1 C-terminal 12 aa], the protein stability index by setting is: under setting [1], 0.715 ± 0.045; (genetic background: wild type) 0.716 ± 0.037.

For the sequence GEGESIDDKLTD [STB1 C-terminal 12 aa], the protein stability index by setting is: under setting [1], 0.6976 ± 0.00096; (genetic background: wild type) 0.733 ± 0.054.

Consider GESISMLFEHGW [PRS5 C-terminal 12 aa], for which the protein stability index reads like this: under setting [1], 0.719 ± 0.012; (genetic background: wild type) 0.7458 ± 0.0051.

With GESVDKVTKNEQ [YPR114W C-terminal 12 aa], the protein stability index is 0.691 ± 0.011 under setting [1] and 0.662 ± 0.014 (genetic background: wild type).

On to GETDSKIKYKYR [SND2 C-terminal 12 aa], for which the protein stability index is, setting by setting: under setting [1], 0.712 ± 0.06; (genetic background: wild type) 0.573 ± 0.026.

On to GFASLIKDFKKK [NET1 C-terminal 12 aa], for which the protein stability index under setting [1] worked out at 0.672 ± 0.018 and the protein stability index (genetic background: wild type) came out at 0.685 ± 0.043.

Consider GGGYLTSLKLFI [YOR041C C-terminal 12 aa], for which the protein stability index worked out at 0.68787 ± 0.00068 under setting [1] and 0.681 ± 0.031 (genetic background: wild type).

For the sequence GGNLPQGYFYTQ [GTS1 C-terminal 12 aa], the protein stability index stood at 0.707 ± 0.0075 under setting [1] and 0.69615 ± 0.00011 (genetic background: wild type).

Consider GIRRIVHEPLGI [MTE1 C-terminal 12 aa], for which the protein stability index was 0.733 ± 0.016 under setting [1] and 0.729 ± 0.045 (genetic background: wild type).

As for GIVRHLIDSVKL [ACS1 C-terminal 12 aa], the protein stability index turned out to be 0.695 ± 0.012 under setting [1] and 0.6884 ± 0.0041 (genetic background: wild type).

Take GKGAIDGFFKRK [RNH202 C-terminal 12 aa]: the protein stability index is, setting by setting: under setting [1], 0.694 ± 0.03; (genetic background: wild type) 0.6575 ± 0.004.

For the sequence GLEFHDVEDRIA [PEX18 C-terminal 12 aa], the protein stability index came to 0.7047 ± 0.0036 under setting [1] and 0.702 ± 0.013 (genetic background: wild type).

As to GLKGLFPTSYCK [BZZ1 C-terminal 12 aa], the protein stability index is, setting by setting: under setting [1], 0.702 ± 0.039; (genetic background: wild type) 0.732 ± 0.02.

Regarding GLQKKNIKIHGF [SUI1 C-terminal 12 aa], the protein stability index runs as follows: under setting [1], 0.699 ± 0.024; (genetic background: wild type) 0.684 ± 0.074.

GQGTTLGGPFFP [ALB1 C-terminal 12 aa]: the protein stability index reads like this: under setting [1], 0.724 ± 0.019; (genetic background: wild type) 0.7215 ± 0.0052.

Sequence GRENGDVNIWAV [MDV1 C-terminal 12 aa] registered a protein stability index under setting [1] of 0.702 ± 0.013 and a protein stability index (genetic background: wild type) of 0.715 ± 0.0099.

GRYAQIHEKHIE [ASN1 C-terminal 12 aa]: the protein stability index under setting [1] was determined as 0.7022 ± 0.0044 and the protein stability index (genetic background: wild type) stood at 0.691 ± 0.089.

On to GSAAVAGALLLL [YNL190W C-terminal 12 aa], for which the protein stability index runs as follows: under setting [1], 0.689 ± 0.02; (genetic background: wild type) 0.664 ± 0.023.

For the sequence GSSLITEGVYVI [NSE1 C-terminal 12 aa], the protein stability index is 0.686 ± 0.021 under setting [1] and 0.683 ± 0.028 (genetic background: wild type).

Consider GSVPANWNWSSF [PIB2 C-terminal 12 aa], for which the protein stability index runs as follows: under setting [1], 0.739 ± 0.03; (genetic background: wild type) 0.699 ± 0.048.

As for GTVCYGMIEIFF [VTC5 C-terminal 12 aa], the protein stability index under setting [1] came out at 0.596 ± 0.009 and the protein stability index (genetic background: wild type) amounted to 0.616 ± 0.013.

On to GVITPVYFPLRW [YDR215C C-terminal 12 aa], for which the protein stability index reads like this: under setting [1], 0.725 ± 0.008; (genetic background: wild type) 0.715 ± 0.017.

Regarding GYACPTHYLREM [MXR1 C-terminal 12 aa], the protein stability index by setting is: under setting [1], 0.6899 ± 0.0052; (genetic background: wild type) 0.7169 ± 0.0063.

Turning to HEKRTEEVARYA [YGR026W C-terminal 12 aa], the protein stability index came out at 0.7173 ± 0.0035 under setting [1] and 0.6604 ± 0.0066 (genetic background: wild type).

Regarding HEVDTEKINIFQ [YML003W C-terminal 12 aa], the protein stability index runs as follows: under setting [1], 0.729 ± 0.018; (genetic background: wild type) 0.697 ± 0.026.

Consider HGGNVSSSTYQA [GND1 C-terminal 12 aa], for which the protein stability index is 0.685 ± 0.013 under setting [1] and 0.696 ± 0.029 (genetic background: wild type).

Consider HGNDFLQHVNRK [RSM22 C-terminal 12 aa], for which the protein stability index worked out at 0.716 ± 0.03 under setting [1] and 0.7065 ± 0.0016 (genetic background: wild type).

On to “HIFYFVLSYSEW [YIL030W-A C-terminal 12 aa]”, for which the protein stability index runs as follows: under setting [1], 0.172 ± 0.022; (genetic background: wild type) 0.192 ± 0.0083.

In the case of HIREDYLRQFGN [KTR5 C-terminal 12 aa], the protein stability index amounted to 0.691 ± 0.027 under setting [1] and 0.616 ± 0.022 (genetic background: wild type).

Take HKSGKLLLPVYI [ECO1 C-terminal 12 aa]: the protein stability index came to 0.636 ± 0.0084 under setting [1] and 0.619 ± 0.03 (genetic background: wild type).

As for HLQRCLSRGARR [SGF11 C-terminal 12 aa], the protein stability index runs as follows: under setting [1], 0.698 ± 0.016; (genetic background: wild type) 0.759 ± 0.039.

On to HNILDRCLKRLS [RKM3 C-terminal 12 aa], for which the protein stability index amounted to 0.699 ± 0.03 under setting [1] and 0.716 ± 0.013 (genetic background: wild type).

For HNPSLWSCIFGK [SWS2 C-terminal 12 aa], the protein stability index under setting [1] was 0.716 ± 0.02 and the protein stability index (genetic background: wild type) came out at 0.714 ± 0.029.

With HNVCGRAFSLPL [HSL7 C-terminal 12 aa], the protein stability index is, setting by setting: under setting [1], 0.7123 ± 0.0037; (genetic background: wild type) 0.677 ± 0.035.

Take HQKARSSYCCIQ [XDJ1 C-terminal 12 aa]: the protein stability index was determined as 0.759 ± 0.02 under setting [1] and 0.706 ± 0.0085 (genetic background: wild type).

On to HRIASKIRSKLR [GIP4 C-terminal 12 aa], for which the protein stability index runs as follows: under setting [1], 0.686 ± 0.0021; (genetic background: wild type) 0.714 ± 0.03.

Turning to HTSVKALQRMTW [CTH1 C-terminal 12 aa], the protein stability index is, setting by setting: under setting [1], 0.7271 ± 0.0051; (genetic background: wild type) 0.6829 ± 0.0024.

With “HWLQLKPGQPMY [MF(ALPHA)1 C-terminal 12 aa]”, the protein stability index under setting [1] amounted to 0.7177 ± 0.0044 and the protein stability index (genetic background: wild type) was found to be 0.6822 ± 0.0032.

In the case of “HYSPFYQLPLIF [YGR240C-A C-terminal 12 aa]”, the protein stability index runs as follows: under setting [1], 0.683 ± 0.022; (genetic background: wild type) 0.575 ± 0.0067.

Take IAPEVTYRGFIE [RIM9 C-terminal 12 aa]: the protein stability index amounted to 0.689 ± 0.027 under setting [1] and 0.685 ± 0.03 (genetic background: wild type).

As to IDEIYEDKWLKI [PSK2 C-terminal 12 aa], the protein stability index by setting is: under setting [1], 0.727 ± 0.027; (genetic background: wild type) 0.74 ± 0.047.

On to IDLVLVVNVLSL [YCR064C C-terminal 12 aa], for which the protein stability index reads like this: under setting [1], 0.425 ± 0.015; (genetic background: wild type) 0.428 ± 0.0062.

Turning to IDTWEIKFNELF [YLR287C C-terminal 12 aa], the protein stability index is, setting by setting: under setting [1], 0.732 ± 0.042; (genetic background: wild type) 0.6954 ± 0.0012.

For IELWETFYQTNL [VPS5 C-terminal 12 aa], the protein stability index is, setting by setting: under setting [1], 0.745 ± 0.011; (genetic background: wild type) 0.7177 ± 0.0056.

Regarding IESTLSNKLSIN [YCR013C C-terminal 12 aa], the protein stability index was found to be 0.696 ± 0.024 under setting [1] and 0.674 ± 0.014 (genetic background: wild type).

On to IFTSGSKSMKDL [ALG6 C-terminal 12 aa], for which the protein stability index runs as follows: under setting [1], 0.73 ± 0.01; (genetic background: wild type) 0.671 ± 0.0092.

Take IFVAILLRYAKI [PCA1 C-terminal 12 aa]: the protein stability index under setting [1] came out at 0.243 ± 0.013 and the protein stability index (genetic background: wild type) was 0.228 ± 0.006.
